Source: patent US7985739, “Enhanced sleeping beauty transposon system and methods for using the same” (The Board of Trustees of the Leland Stanford Junior …)
Numbering of substitutions follows the chain as printed.

Key:
[1] = tested on: Sleeping Beauty transposase S270A S270A (salmonid (reconstructed)); assay: cell_activity; conditions: transposition in HeLa
[2] = tested on: Sleeping Beauty transposase HSB-5 K13A,K33A,T83A,S270A (salmonid (reconstructed)); assay: cell_activity; conditions: transposition in HeLa, G418R colonies
[3] = tested on: Sleeping Beauty transposase K33A K33A (salmonid (reconstructed)); assay: cell_activity; conditions: transposition in HeLa; text says improved 400%
[4] = tested on: Sleeping Beauty transposase N123 HSB1 (mutations not given) (salmonid (reconstructed)); assay: EMSA; conditions: no change vs WT
[5] = target: T1, Sleeping Beauty transposase N123 (WT) (salmonid (reconstructed)); assay: EMSA; poly(dI)(dC), 22 C; 500-fold cold oligo used as specific competitor; conditions: tags: pGADT7 TNT T7 reticulocyte lysate; label: 32P
T1 chain: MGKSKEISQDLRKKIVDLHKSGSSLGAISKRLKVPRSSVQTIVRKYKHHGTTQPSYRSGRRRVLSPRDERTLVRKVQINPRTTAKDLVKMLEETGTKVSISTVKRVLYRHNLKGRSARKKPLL
Description: (§1) Truncated (N123) derivatives of wild-type and mutant SB proteins were generated using the TNT T7 coupled reticulocyte lysate system (Promega) according to the manufacturer's instructions. Double-stranded oligonucleotides corresponding to the outer and inner direct repeats (DRs) from SB's left inverted repeat (IR) were end-labeled using [γ-^32P]ATP and PNK. Complexes were formed in a 10 μl volume containing 10 fmol labeled oligonucleotide, 6 μl of in vitro translation product, 1 μg poly(dI)(dC), and binding buffer as previously described (Ivics et al., 1997). For competitions, increasing amounts (1-500 nM) of the corresponding unlabeled oligonucleotide was added to the reaction. After a 90 minute incubation at 22° C., 5 μl of loading dye was added and each sample was resolved on a 5% polyacrylamide gel for 2-3 hours at 120 volts. Binding affinities were determined by measuring the ratio of bound vs. free radiolabeled probe using a Phosphorimager, and normalized according to the amount bound in the absence of cold competitor minus the amount bound at the highest competitor concentration.

[6] = target: T2, Sleeping Beauty transposase N123 HSB4 (salmonid (reconstructed), K33A,T83A,L91A); assay: EMSA; cold competition, 1-500 nM; conditions: tags: pGADT7 TNT T7 reticulocyte lysate; label: 32P
T2 chain: T1 chain with K33A, T83A, L91A
Description: as §1
(§2) Figure 8: FIG. 8. is a comparison of the relative binding affinities of the WT and HSB mutants for transposon binding sites. SB-N123 peptides for WT and hyperactive transposases were complexed with double-stranded radiolabeled oligos encoding the inner (top panel) or outer (bottom panel) DR sequences. Protein-DNA complexes were formed in the presence of increasing amounts of the corresponding unlabeled oligonucleotide. The percent binding was determined using a Phosphorimager and normalized according to the amount of probe bound in the absence of any competitor minus the amount of probe bound at 500 nM.

[7] = target: T3, Sleeping Beauty transposase N123 HSB3 (salmonid (reconstructed), K13A,K33A,T83A); assay: EMSA; cold competition, 1-500 nM; conditions: tags: pGADT7 TNT T7 reticulocyte lysate; label: 32P
T3 chain: T1 chain with K13A, K33A, T83A
Description: as §1, §2

[8] = target: T4, Sleeping Beauty transposase N123 HSB2 (salmonid (reconstructed), K33A,L91A); assay: EMSA; cold competition, 1-500 nM; conditions: tags: pGADT7 TNT T7 reticulocyte lysate; label: 32P
T4 chain: T1 chain with K33A, L91A
Description: as §1, §2

[9] = target: T2, Sleeping Beauty transposase N123 HSB4; assay: EMSA; no change vs WT; conditions: tags: pGADT7 TNT T7 reticulocyte lysate; label: 32P
Description: as §1, §2

[10] = target: T3, Sleeping Beauty transposase N123 HSB3; assay: EMSA; no change vs WT; conditions: tags: pGADT7 TNT T7 reticulocyte lysate; label: 32P
Description: as §1, §2

[11] = target: T4, Sleeping Beauty transposase N123 HSB2; assay: EMSA; no change vs WT; conditions: tags: pGADT7 TNT T7 reticulocyte lysate; label: 32P
Description: as §1, §2

[12] = target: T5, Sleeping Beauty transposase N123 L25A (salmonid (reconstructed), L25A); assay: EMSA; conditions: tags: pGADT7 TNT T7 reticulocyte lysate; label: 32P
T5 chain: T1 chain with L25A
Description: as §1

[13] = target: T6, Sleeping Beauty transposase N123 R36A (salmonid (reconstructed), R36A); assay: EMSA; conditions: tags: pGADT7 TNT T7 reticulocyte lysate; label: 32P
T6 chain: T1 chain with R36A
Description: as §1

[14] = target: T7, Sleeping Beauty transposase N123 I42A (salmonid (reconstructed), I42A); assay: EMSA; conditions: tags: pGADT7 TNT T7 reticulocyte lysate; label: 32P
T7 chain: T1 chain with I42A
Description: as §1

pT/nori neomycin-marked SB transposon (full sequence not given)
activity [1]: 186 % of WT
activity [2]: > 10 fold vs WT
activity [3]: 400 % of WT

TCCAGTGGGTCAGAAGTTTACATACACTAAGT (double strand) [inner DR of SB left IR]
binding signal (fold affinity vs WT) [4]: 1

B1: outer DR of SB left IR (dsDNA)
DNA 1: TACAGTTGAAGTCGGAAGTTTACATACACTTAGG
DNA 2: CCTAAGTGTATGTAAACTTCCGACTTCAACTGTA
binding result [5]: binds
binding result [6]: binds
binding signal [7]: 2 fold affinity vs WT
binding result [8]: binds

B2: inner DR of SB left IR (dsDNA)
DNA 1: TCCAGTGGGTCAGAAGTTTACATACACTAAGT
DNA 2: ACTTAGTGTATGTAAACTTCTGACCCACTGGA
binding result [5]: binds
binding signal [9]: 1 fold affinity vs WT
binding signal [10]: 1 fold affinity vs WT
binding signal [11]: 1 fold affinity vs WT
binding result [12]: binds
binding result [13]: binds
binding result [14]: binds
